In publication PMC3203579:

Target: T1, AtFib2 (Arabidopsis thaliana, UniProt Q94AH9 1-320)
T1 sequence: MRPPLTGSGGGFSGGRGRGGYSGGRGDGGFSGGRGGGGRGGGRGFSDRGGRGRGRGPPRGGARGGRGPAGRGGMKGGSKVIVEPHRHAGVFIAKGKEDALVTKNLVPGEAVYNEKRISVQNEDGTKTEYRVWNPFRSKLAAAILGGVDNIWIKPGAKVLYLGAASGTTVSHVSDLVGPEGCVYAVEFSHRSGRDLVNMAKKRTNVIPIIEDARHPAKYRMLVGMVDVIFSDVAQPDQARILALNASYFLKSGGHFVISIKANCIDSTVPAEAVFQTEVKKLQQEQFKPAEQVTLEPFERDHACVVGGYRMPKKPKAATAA
Test: EMSA

B1: poly(A) 80 nt (ssRNA)
RNA: AAAAAAAAAAAAAAAAAAAAAAAAAAAAAAAAAAAAAAAAAAAAAAAAAAAAAAAAAAAAAAAAAAAAAAAAAAAAAAAA
- Kd: 190 nM
